From US20160058880A1 (LIFE SCIENCES RESEARCH PARTNERS VZW, published 2016)
Numbered stars: 1 amine (or outer) side, 2 acyl side, 3 side chain; on linkers, the order of the positions; unused ones are H or OH. Square brackets hold non-standard residues; d marks the D form. * marks the point of attachment. Doxorubicin(3'-N) = COc1cccc2c1C(=O)c1c(O)c3c(c(O)c1C2=O)C[C@@](O)(C(=O)CO)C[C@@H]3O[C@H]1C[C@H](N*)[C@H](O)[C@H](C)O1; Phosphonoacetyl = O=C(CP(=O)(O)O)*; Suc = O=C(CCC(=O)[*:2])[*:1]; βAla = NCCC(=O)O

B1: PhAc-KLGP-doxorubicin (peptide)
peptide: Phosphonoacetyl-KLGP-{Doxorubicin(3'-N)}
SMILES: COc1cccc2c1C(=O)c1c(O)c3c(c(O)c1C2=O)C[C@@](O)(C(=O)CO)C[C@@H]3O[C@H]1C[C@H](NC(=O)[C@@H]2CCCN2C(=O)CNC(=O)[C@H](CC(C)C)NC(=O)[C@H](CCCCN)NC(=O)CP(=O)(O)O)[C@H](O)[C@H](C)O1
B2: PhAc-GPGP-doxorubicin (peptide)
peptide: Phosphonoacetyl-GPGP-{Doxorubicin(3'-N)}
SMILES: COc1cccc2c1C(=O)c1c(O)c3c(c(O)c1C2=O)C[C@@](O)(C(=O)CO)C[C@@H]3O[C@H]1C[C@H](NC(=O)[C@@H]2CCCN2C(=O)CNC(=O)[C@@H]2CCCN2C(=O)CNC(=O)CP(=O)(O)O)[C@H](O)[C@H](C)O1
B3: PhAc-ALGP-doxorubicin (peptide)
peptide: Phosphonoacetyl-ALGP-{Doxorubicin(3'-N)}
SMILES: COc1cccc2c1C(=O)c1c(O)c3c(c(O)c1C2=O)C[C@@](O)(C(=O)CO)C[C@@H]3O[C@H]1C[C@H](NC(=O)[C@@H]2CCCN2C(=O)CNC(=O)[C@H](CC(C)C)NC(=O)[C@H](C)NC(=O)CP(=O)(O)O)[C@H](O)[C@H](C)O1
B4: PhAc-DLGP-doxorubicin (peptide)
peptide: Phosphonoacetyl-DLGP-{Doxorubicin(3'-N)}
SMILES: COc1cccc2c1C(=O)c1c(O)c3c(c(O)c1C2=O)C[C@@](O)(C(=O)CO)C[C@@H]3O[C@H]1C[C@H](NC(=O)[C@@H]2CCCN2C(=O)CNC(=O)[C@H](CC(C)C)NC(=O)[C@H](CC(=O)O)NC(=O)CP(=O)(O)O)[C@H](O)[C@H](C)O1
B5: PhAc-TSGP-doxorubicin (peptide)
peptide: Phosphonoacetyl-TSGP-{Doxorubicin(3'-N)}
SMILES: COc1cccc2c1C(=O)c1c(O)c3c(c(O)c1C2=O)C[C@@](O)(C(=O)CO)C[C@@H]3O[C@H]1C[C@H](NC(=O)[C@@H]2CCCN2C(=O)CNC(=O)[C@H](CO)NC(=O)[C@@H](NC(=O)CP(=O)(O)O)[C@@H](C)O)[C@H](O)[C@H](C)O1
B6: PhAc-AIGP-doxorubicin (peptide)
peptide: Phosphonoacetyl-AIGP-{Doxorubicin(3'-N)}
SMILES: CC[C@H](C)[C@H](NC(=O)[C@H](C)NC(=O)CP(=O)(O)O)C(=O)NCC(=O)N1CCC[C@H]1C(=O)N[C@H]1C[C@H](O[C@H]2C[C@](O)(C(=O)CO)Cc3c(O)c4c(c(O)c32)C(=O)c2c(OC)cccc2C4=O)O[C@@H](C)[C@H]1O
B7: PhAc-ALPF-doxorubicin (peptide)
peptide: Phosphonoacetyl-ALPF-{Doxorubicin(3'-N)}
SMILES: COc1cccc2c1C(=O)c1c(O)c3c(c(O)c1C2=O)C[C@@](O)(C(=O)CO)C[C@@H]3O[C@H]1C[C@H](NC(=O)[C@H](Cc2ccccc2)NC(=O)[C@@H]2CCCN2C(=O)[C@H](CC(C)C)NC(=O)[C@H](C)NC(=O)CP(=O)(O)O)[C@H](O)[C@H](C)O1

Experiments:
[1] = target: TOP (recombinant human thimet oligopeptidase, R&D systems, Ref 3439-ZN) (human, UniProt P52888 1-689, limits assumed); assay: cell-based or functional assay
TOP (recombinant human thimet oligopeptidase, R&D systems, Ref 3439-ZN), sequence (P52888 whole entry): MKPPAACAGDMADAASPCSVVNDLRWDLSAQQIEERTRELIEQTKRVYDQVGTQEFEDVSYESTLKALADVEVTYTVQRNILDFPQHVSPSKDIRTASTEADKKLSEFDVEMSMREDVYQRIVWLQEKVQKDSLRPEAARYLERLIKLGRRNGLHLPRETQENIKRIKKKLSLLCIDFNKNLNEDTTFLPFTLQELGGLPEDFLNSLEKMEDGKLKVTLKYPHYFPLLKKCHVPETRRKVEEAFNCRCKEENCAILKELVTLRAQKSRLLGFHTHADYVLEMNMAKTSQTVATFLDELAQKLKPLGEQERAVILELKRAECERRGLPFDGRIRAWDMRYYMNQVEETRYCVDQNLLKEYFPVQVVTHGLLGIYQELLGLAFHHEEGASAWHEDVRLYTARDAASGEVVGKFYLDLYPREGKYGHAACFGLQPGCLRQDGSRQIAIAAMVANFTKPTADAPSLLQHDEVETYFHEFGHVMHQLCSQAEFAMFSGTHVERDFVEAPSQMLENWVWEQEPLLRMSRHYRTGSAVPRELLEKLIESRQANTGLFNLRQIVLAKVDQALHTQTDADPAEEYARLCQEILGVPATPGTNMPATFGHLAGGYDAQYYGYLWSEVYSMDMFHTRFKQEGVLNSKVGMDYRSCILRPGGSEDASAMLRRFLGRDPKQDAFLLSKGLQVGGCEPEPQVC

[2] = target: CD10 (recombinant human neprilysin, R&D systems, Ref 1182-ZN) (human, UniProt P08473 53-750); assay: cell-based or functional assay
CD10 (recombinant human neprilysin, R&D systems, Ref 1182-ZN), sequence (P08473 53-750 limits assumed): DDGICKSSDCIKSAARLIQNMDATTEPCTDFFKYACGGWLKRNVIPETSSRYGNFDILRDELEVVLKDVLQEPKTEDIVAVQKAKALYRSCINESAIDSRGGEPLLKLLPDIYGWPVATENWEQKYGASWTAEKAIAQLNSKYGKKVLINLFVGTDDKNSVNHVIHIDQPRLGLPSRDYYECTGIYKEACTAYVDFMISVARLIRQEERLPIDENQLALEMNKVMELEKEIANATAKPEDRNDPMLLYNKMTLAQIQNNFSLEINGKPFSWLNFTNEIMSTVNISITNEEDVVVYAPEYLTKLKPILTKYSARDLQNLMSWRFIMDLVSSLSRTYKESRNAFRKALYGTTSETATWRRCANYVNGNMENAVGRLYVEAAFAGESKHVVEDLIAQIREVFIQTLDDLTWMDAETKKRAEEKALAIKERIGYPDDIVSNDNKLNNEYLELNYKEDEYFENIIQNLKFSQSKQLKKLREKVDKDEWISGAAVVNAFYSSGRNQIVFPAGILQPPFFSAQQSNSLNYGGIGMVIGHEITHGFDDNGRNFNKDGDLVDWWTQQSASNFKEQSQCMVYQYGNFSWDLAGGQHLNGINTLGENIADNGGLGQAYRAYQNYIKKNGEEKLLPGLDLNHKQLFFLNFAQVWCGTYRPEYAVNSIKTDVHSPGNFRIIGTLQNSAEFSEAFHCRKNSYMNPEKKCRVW

| Binder | % Metabolites released after 3 h with TOP 5 nM (GP-Dox) [1] | % Metabolites released after 3 h with TOP 5 nM [1] | % Metabolites released after 3 h with CD10 10 nM [2] |
| --- | --- | --- | --- |
| B1 | 31% | – | – |
| Suc-[βAla]LPF-doxorubicin [Succinyl-βALPF-doxorubicin] | – | 0% | – |
| B2 | – | 0% | 0% |
| B3 | 72% | – | – |
| B4 | – | 0% | 0% |
| B5 | 38% | – | 0% |
| B6 | < 5% | – | – |
| B7 | – | – | 0% |
